Values belong to the binder of their own block, whether it stands above or below them.
Tests used:
[1] = molecular target: T1, cynomolgus monkey IL-13 (NHP IL-13) (cynomolgus monkey, UniProt Q5I6E4 21-132 (Macaca thibetana entry)); assay: sandwich ELISA, capture antibody
T1 construct: Also used here for the IL-13 found in cynomolgus monkey serum; also called non-human primate IL-13; cynomolgus IL-13
T1 chain: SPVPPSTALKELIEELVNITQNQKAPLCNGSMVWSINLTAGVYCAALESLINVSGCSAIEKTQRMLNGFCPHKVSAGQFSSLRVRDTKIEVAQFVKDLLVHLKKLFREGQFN
Excerpt: FIG. 20 is a series of bar graphs depicting the increases in serum IL-13 levels in individual cynomolgus monkeys treated with humanized MJ2-7 (hMJ2-7v2-11). The label in each panel (e.g., 120-452) corresponds to the monkey identification number. The “pre” sample was collected prior to administration of the antibody. The time “0” was collected 24-hours post-antibody administration, but prior to Ascaris challenge. The remaining time points were post-Ascaris challenge. The assays used to detect IL-13 levels are able to detect IL-13 in the presence of hMJ2-7v2-11 or hmAb13.2v2 antibodies. More specifically, ELISA plates (MaxiSorp; Nunc, Rochester, N.Y.), were coated overnight at 4° C. with 0.5 ug/ml mAb13.2 in PBS. Plates were washed in PBS containing 0.05% Tween-20 (PBS-Tween). NHP IL-13 standards, or serum dilutions from cynomolgus monkeys, were added and incubated for 2 hours at room temperature. Plates were washed, and 0.3 ug/ml biotinylated MJ1-64 (referred to herein as C65 antibody) was added in PBS-Tween. Plates were incubated 2 hours, room temperature, washed, and binding detected using HRP-streptavidin (Southern Biotechnology Associates) and Sure Blue substrate (Kirkegaard and Perry Labs). For detection of IL-13 in the presence of mAb13.2, the same protocol was followed, excepts that ELISA plates were coated with 0.5 ug/ml MJ2-7.

[2] = molecular target: T1, cynomolgus monkey IL-13 (NHP IL-13); assay: cell-based or functional assay
[3] = molecular target: T2, native human IL-13 (human, UniProt P35225 34-146); assay: cell-based or functional assay
T2 sequence (P35225 other isoform, or with tags, fused parts or gaps): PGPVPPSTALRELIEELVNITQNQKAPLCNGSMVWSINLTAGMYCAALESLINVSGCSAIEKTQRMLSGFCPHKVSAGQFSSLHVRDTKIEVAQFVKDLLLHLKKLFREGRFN

[4] = molecular target: T2, native human IL-13; assay: cell-based or functional assay; remark: listed apart in the source
[5] = molecular target: T3, FLAG-tagged NHP IL-13 (cynomolgus monkey, UniProt Q5I6E4 21-132 (Macaca thibetana entry)); assay: competition ELISA against biotinylated mouse MJ 2-7
T3 construct: also called NHP IL-13-FLAG; FLAG NHP IL-13; not shown: FLAG tag
T3 chain: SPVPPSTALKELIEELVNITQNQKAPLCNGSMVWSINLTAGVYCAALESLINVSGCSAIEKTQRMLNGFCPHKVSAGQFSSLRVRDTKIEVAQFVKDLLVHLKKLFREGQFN
Protocol: The ability of fully humanized MJ 2-7 mAb (V1, V2 v2) to compete with biotinylated mouse MJ 2-7 Ab for binding to NHP IL-13-FLAG was evaluated by ELISA. The microtiter plates (Costar) were coated with 1 μg/ml of anti-FLAG monoclonal antibody M2 (Sigma). The FLAG NHP IL-13 protein at concentration of 10 ng/ml was mixed with 10 ng/ml of biotin labeled mouse MJ 2-7 antibody and various concentrations of unlabeled mouse and humanized MJ 2-7 antibody. The mixture was incubated for 2 hours at room temperature and then added to the anti-FLAG antibody-coated plate. Binding of FLAG NHP-IL-13/bioMJ2-7 Ab complexes was detected with streptavidin-HRP and 3,3′,5,5′-tetramethylbenzidine (TMB). […] BIACORE™ analysis also confirmed that NHP IL-13 had rapid binding to and slow dissociation to immobilized h1uMJ 2-7 v2.11.

[6] = molecular target: T1, cynomolgus monkey IL-13 (NHP IL-13); assay: SPR (BIACORE), antibody captured on goat anti-human IgG Fc, NHP-IL-13 at 0.09-600 nM injected, 1:1 model, 22.5 C
Protocol: (§1) For kinetic analysis, the monoclonal antibody hMJ2-7 V2-11 was captured onto the anti IgG antibody surface by injecting 40 μl of a 1 μg/ml solution. The net difference between the baseline and the point approximately 30 seconds after completion of injection was taken to represent the amount of target bound. Solutions of NHP-IL-13 at 600, 200, 66.6, 22.2, 7.4, 2.5, 0.8, 0.27, 0.09 and 0 nM concentrations were injected in triplicate at a flow rate of […] for 2 minutes, and the amount of bound material as a function of time was recorded (FIG. 8). The dissociation phase was monitored in HBS/EP buffer (10 mM HEPES, pH 7.4, containing 150 mM NaCl, 3 mM EDTA and 0.005% (v/v) Surfactant P20) for 5 minutes at the same flow rate followed by two 5 μl injections of glycine, pH 1.5, to regenerate a fully active capturing surface. All kinetic experiments were done at 22.5° C. in HBS/EP buffer. Blank and buffer effects were subtracted for each sensorgram using double referencing.

[7] = molecular target: T1, cynomolgus monkey IL-13 (NHP IL-13); assay: SPR (BIACORE), Kd=kd/ka from the kinetic rate constants
Protocol: as §1

[8] = molecular target: T4, NHP-IL-13 in a complex with immobilized sIL-13Rα2-Fc (cynomolgus monkey; human, UniProt Q14627 27-343, limits assumed); assay: SPR (BIACORE), sIL-13Rα2-Fc amine-coupled to a CM5 chip, NHP-IL-13 injected, then antibody
T4 construct: not shown: human IgG1 Fc tail
Protocol: sIL-13Rα2-Fc was directly coated onto a CM5 chip by standard amine coupling. NHP-IL-13 at 100 nM concentration was injected, and its binding to the immobilized IL-13Rα2-Fc was detected by BIACORE™. An additional injection of 100 nM of anti IL-13 antibodies was added, and changes in binding were monitored.

binding result [1]: binds
B1: monoclonal antibody 13.2 (mAb13.2) (antibody, mouse IgG1, V domains shown)
VH: EVKLVESGGGLVKPGGSLKLSCAASGFTFISYAMSWVRQTPEKRLEWVASISSGGNTYYPDSVKGRFTISRDNARNILYLQMSSLRSEDTAMYYCARLDGYYFGFAYWGQGTTVTVSS
VL: DIVLTQSPASLAVSLGQRATISCKASESVDNYGKSLMHWYQQKPGQSPKLLIYRASNLESGIPARFSGSGSRTDFTLTINPVEADDVATYYCQQSNEDPWTFGGGTKLEIK

fold decrease in monocyte CD23 expression assay, 3 ng/ml NHP IL-13; activity against that of MJ2-7 and sIL-13Rα2-Fc [2]: ~20 fold
fold decrease in STAT6 phosphorylation assay in HT-29 cells, 0.3 ng/ml native human IL-13; activity against that of MJ2-7 [3]: ~20 fold
B2: mouse monoclonal antibody C65 (antibody, V domains shown)
VH: QVQLKESGPGLVAPSQSLSITCTVSGFSLTGYGVNWVRQPPGKGLEWLGIIWGDGSTDYNSALKSRLIINKDNSKSQVFLKMNSLQTDDTARYFCARDKTFYYDGFYRGRMDYWGQGTSVTVSS
VL: DVQMIQSPSSLSASLGDIVTMTCQASQGTSINLNWFQQKPGKAPKLLIFGASNLEDGVPSRFSGSRYGTNFTLTISSLEDEDMATYFCLQHSYLPWTFGGGTKLEIK

STAT6 phosphorylation assay in HT-29 cells, 0.3 ng/ml native human IL-13, IC50 [3]: 0.33 nM
B3: sIL-13Rα2-Fc (soluble human IL-13 receptor alpha2 with a human IgG1 Fc tail) (Fc fusion, UniProt Q14627 27-343, looked up, not shown: a dimerising Fc or GST)
chain: DTEIKVNPPQDFEIVDPGYLGYLYLQWQPPLSLDHFKECTVEYELKYRNIGSETWKTIITKNLHYKDGFDLNKGIEAKIHTLLPWQCTNGSEVQSSWAETTYWISPQGIPETKVQDMDCVYYNWQYLLCSWKPGIGVLLDTNYNLFYWYEGLDHALQCVDYIKADGQNIGCRFPYLEASDYKDFYICVNGSSENKPIRSSYFTFQLQNIVKPLPPVYLTFTRESSCEIKLKWSIPLGPIPARCFDYEIEIREDDTTLVTATVENETYTLKTTNETRQLCFVVRSKVNIYCSDDGIWSEWSDKQCWEGEDLSKKTLLR

Native hIL-13 STAT6 assay IC 50, nM [4]: 17.5 nM
B4: humanized MJ 2-7 V2.4 (VH V2.4 / VL V2) (antibody, V domains shown)
VH: EVQLVESGGGLVQPGGSLRLSCAASGFNIKDTYIHWVRQAPGKGLEWVGRIDPANDNIKYDPKFQGRFTISRDNAKNSLYLQMNSLRAEDTAVYYCARSEENWYDFFDYWGQGTLVTVSS
VL: DIQMTQSPSSLSASVGDRVTITCRSSQSIVHSNGNTYLEWYQQKPGKAPKLLIYKVSNRFSGVPSRFSGSGSGTDFTLTISSLQPEDFATYYCFQGSHIPYTFGGGTKVEIKR

binding result [5]: binds
Native hIL-13 STAT6 assay IC 50, nM [4]: > 100 nM
B5: humanized MJ 2-7 V2 (CDR grafted; VH V2 / VL V2) (antibody, human IgG1, V domains shown)
VH: EVQLVESGGGLVQPGGSLRLSCAASGFNIKDTYIHWVRQAPGKGLEWVARIDPANDNIKYDPKFQGRFTISRDNAKNSLYLQMNSLRAEDTAVYYCARSEENWYDFFDYWGQGTLVTVSS
VL: DIQMTQSPSSLSASVGDRVTITCRSSQSIVHSNGNTYLEWYQQKPGKAPKLLIYKVSNRFSGVPSRFSGSGSGTDFTLTISSLQPEDFATYYCFQGSHIPYTFGGGTKVEIKR
notes: Expressed in COS cells with human IgG1 (IgG1mut) and human kappa constant regions; also called hMJ2-7 V2; huMJ 2-7 V2

koff [6]: 0.000889 s⁻¹
kon [6]: 2.05e+07 M⁻¹ s⁻¹
STAT6 phosphorylation assay in HT-29 cells, 0.3 ng/ml native human IL-13, IC50 [3]: 0.52 nM
Kd [7]: 0.043 nM
B6: humanized MJ 2-7 V2.11 IgG1 with a mutated CH2 domain (antibody, V domains shown)
VH: EVQLVESGGGLVQPGGSLRLSCAASGFNIKDTYIHWVRQAPGKGLEWIGRIDPANDNIKYDPKFQGRFTISADNAKNSAYLQMNSLRAEDTAVYYCARSEENWYDFFDYWGQGTLVTVSS
VL: DIQMTQSPSSLSASVGDRVTITCRSSQSIVHSNGNTYLEWYQQKPGKAPKLLIYKVSNRFSGVPSRFSGSGSGTDFTLTISSLQPEDFATYYCFQGSHIPYTFGGGTKVEIKR
notes: VH V2.11 (back mutations V48I); A49G; R72A; L79A; human IgG1 with mutated CH2 and human kappa; also called hMJ2-7 V2-11; huMJ 2-7 V2.11

Native hIL-13 STAT6 assay IC 50, nM [4]: 2.8 nM
B7: humanized MJ 2-7 V2.1 (VH V2.1 / VL V2) (antibody, V domains shown)
VH: EVQLVESGGGLVQPGGSLRLSCAASGFNIKDTYIHWVRQAPGKGLEWIGRIDPANDNIKYDPKFQGRFTISRDNAKNSLYLQMNSLRAEDTAVYYCARSEENWYDFFDYWGQGTLVTVSS
VL: DIQMTQSPSSLSASVGDRVTITCRSSQSIVHSNGNTYLEWYQQKPGKAPKLLIYKVSNRFSGVPSRFSGSGSGTDFTLTISSLQPEDFATYYCFQGSHIPYTFGGGTKVEIKR

Native hIL-13 STAT6 assay IC 50, nM [4]: 1.7 nM
B8: humanized MJ 2-7 V2.7 (VH V2.7 / VL V2) (antibody, V domains shown)
VH: EVQLVESGGGLVQPGGSLRLSCAASGFNIKDTYIHWVRQAPGKGLEWVGRIDPANDNIKYDPKFQGRFTISADNAKNSLYLQMNSLRAEDTAVYYCARSEENWYDFFDYWGQGTLVTVSS
VL: DIQMTQSPSSLSASVGDRVTITCRSSQSIVHSNGNTYLEWYQQKPGKAPKLLIYKVSNRFSGVPSRFSGSGSGTDFTLTISSLQPEDFATYYCFQGSHIPYTFGGGTKVEIKR

Native hIL-13 STAT6 assay IC 50, nM [4]: 1.75 nM
B9: humanized MJ 2-7 V2.5 (VH V2.5 / VL V2) (antibody, V domains shown)
VH: EVQLVESGGGLVQPGGSLRLSCAASGFNIKDTYIHWVRQAPGKGLEWVARIDPANDNIKYDPKFQGKATISADNAKNSLYLQMNSLRAEDTAVYYCARSEENWYDFFDYWGQGTLVTVSS
VL: DIQMTQSPSSLSASVGDRVTITCRSSQSIVHSNGNTYLEWYQQKPGKAPKLLIYKVSNRFSGVPSRFSGSGSGTDFTLTISSLQPEDFATYYCFQGSHIPYTFGGGTKVEIKR

Native hIL-13 STAT6 assay IC 50, nM [4]: > 100 nM
B10: humanized MJ 2-7 V2.2 (VH V2.2 / VL V2) (antibody, V domains shown)
VH: EVQLVESGGGLVQPGGSLRLSCAASGFNIKDTYIHWVRQAPGKGLEWVARIDPANDNIKYDPKFQGKATISRDNAKNSLYLQMNSLRAEDTAVYYCARSEENWYDFFDYWGQGTLVTVSS
VL: DIQMTQSPSSLSASVGDRVTITCRSSQSIVHSNGNTYLEWYQQKPGKAPKLLIYKVSNRFSGVPSRFSGSGSGTDFTLTISSLQPEDFATYYCFQGSHIPYTFGGGTKVEIKR

CD23 expression assay, non-human primate IL-13 at 1 ng/ml, IC50 [2]: ~0.242 nM
STAT6 phosphorylation assay in HT-29 cells, 0.3 ng/ml native human IL-13, IC50 [3]: 0.48 nM
STAT6 phosphorylation assay, native human IL-13 at 1 ng/ml, IC50 [3]: ~0.293 nM
tenascin production assay in BEAS-2B cells, 3 ng/ml native human IL-13, IC50 [3]: ~0.1 nM
binding result [8]: no binding (tested: 100 nM)
B11: mouse monoclonal antibody MJ 2-7 (antibody, mouse IgG1, V domains shown)
VH: EVQLQQSGAELVKPGASVKLSCTGSGFNIKDTYIHWVKQRPEQGLEWIGRIDPANDNIKYDPKFQGKATITADTSSNTAYLQLNSLTSEDTAVYYCARSEENWYDFFDYWGQGTTLTVSS
VL: DVLMTQTPLSLPVSLGDQASISCRSSQSIVHSNGNTYLEWYLQKPGQSPKLLIYKVSNRFSGVPDRFSGSGSGTDFTLKISRVEAEDLGVYYCFQGSHIPYTFGGGTKLEIK
notes: also called mAb7.1.1; murine MJ2-7

— patent publication US20090098142A1 (published 2009)
